Measurements published in the MegaScale stability set (Tsuboyama et al. 2023).

B1: EHEE_rd2_1257 (parent)
chain: EEERTFTNEEEARKAKKEAEKRGLRVTVTKDGTTWRVRIG

Variants of: B1
Experiment: folding stability dG (cDNA display proteolysis); higher = more stable
Conditions: PBS, room temperature

Row | Variant | folding stability dG
1 | EEERTFTNEEEAFKAKKEAEKRGLRVTVTKDGTTWRVRIG [R13F] | 2.73 kcal/mol
2 | EEERTFTNEEEADKAKKEAEKRGLRVTVTKDGTTWRVRIG [R13D] | 1.98 kcal/mol
3 | EEERTFTNEEEAQKAKKEAEKRGLRVTVTKDGTTWRVRIG [R13Q] | 2.32 kcal/mol
4 | EEERTFTNEEEAMKAKKEAEKRGLRVTVTKDGTTWRVRIG [R13M] | 3.15 kcal/mol
5 | EEERTFTNEEEAHKAKKEAEKRGLRVTVTKDGTTWRVRIG [R13H] | 2.19 kcal/mol
6 | EEERTFTNEEEAGKAKKEAEKRGLRVTVTKDGTTWRVRIG [R13G] | 1.37 kcal/mol
7 | EEERTFTNEEEAVKAKKEAEKRGLRVTVTKDGTTWRVRIG [R13V] | 2.26 kcal/mol
8 | EEERTFTNEEEASKAKKEAEKRGLRVTVTKDGTTWRVRIG [R13S] | 1.82 kcal/mol
9 | EEERTFTNEEEANKAKKEAEKRGLRVTVTKDGTTWRVRIG [R13N] | 2.35 kcal/mol
10 | EEERTFTNEEEAIKAKKEAEKRGLRVTVTKDGTTWRVRIG [R13I] | 2.74 kcal/mol
11 | EEERTFTNEEEATKAKKEAEKRGLRVTVTKDGTTWRVRIG [R13T] | 2.12 kcal/mol
12 | EEERTFTNEEEAYKAKKEAEKRGLRVTVTKDGTTWRVRIG [R13Y] | 2.92 kcal/mol
13 | EEERTFTNEEEALKAKKEAEKRGLRVTVTKDGTTWRVRIG [R13L] | 2.96 kcal/mol
14 | EEERTFTNEEEAKKAKKEAEKRGLRVTVTKDGTTWRVRIG [R13K] | 2.05 kcal/mol
15 | EEERTFTNEEEAEKAKKEAEKRGLRVTVTKDGTTWRVRIG [R13E] | 2.22 kcal/mol
16 | EEERTFTNEEEAWKAKKEAEKRGLRVTVTKDGTTWRVRIG [R13W] | 2.73 kcal/mol
17 | EEERTFTNEEEARKAAKEAEKRGLRVTVTKDGTTWRVRIG [K16A] | 3.56 kcal/mol
18 | EEERTFTNEEEARKGKKEAEKRGLRVTVTKDGTTWRVRIG [A15G] | -0.185 kcal/mol
19 | EEERTFTNEEEARKYKKEAEKRGLRVTVTKDGTTWRVRIG [A15Y] | 3.31 kcal/mol
20 | EEERTFTNEEEARKKKKEAEKRGLRVTVTKDGTTWRVRIG [A15K] | 0.42 kcal/mol
21 | EEERTFTNEEEARKNKKEAEKRGLRVTVTKDGTTWRVRIG [A15N] | 0.555 kcal/mol

Row | Variant | folding stability dG
22 | EEERTFTNEEEARKEKKEAEKRGLRVTVTKDGTTWRVRIG [A15E] | 1.11 kcal/mol
23 | EEERTFTNEEEARKSKKEAEKRGLRVTVTKDGTTWRVRIG [A15S] | 0.987 kcal/mol
24 | EEERTFTNEEEARKHKKEAEKRGLRVTVTKDGTTWRVRIG [A15H] | 1.67 kcal/mol
25 | EEERTFTNEEEARKRKKEAEKRGLRVTVTKDGTTWRVRIG [A15R] | 0.547 kcal/mol
26 | EEERTFTNEEEARKQKKEAEKRGLRVTVTKDGTTWRVRIG [A15Q] | 0.698 kcal/mol
27 | EEERTFTNEEEARKDKKEAEKRGLRVTVTKDGTTWRVRIG [A15D] | 0.155 kcal/mol
28 | EEERTFTNEEEARKVKKEAEKRGLRVTVTKDGTTWRVRIG [A15V] | 1.72 kcal/mol
29 | EEERTFTNEEEARKFKKEAEKRGLRVTVTKDGTTWRVRIG [A15F] | 3.5 kcal/mol
30 | EEERTFTNEEEARKWKKEAEKRGLRVTVTKDGTTWRVRIG [A15W] | 3.04 kcal/mol
31 | EEERTFTNEEEARKLKKEAEKRGLRVTVTKDGTTWRVRIG [A15L] | 2.02 kcal/mol
32 | EEERTFTNEEEARKTKKEAEKRGLRVTVTKDGTTWRVRIG [A15T] | 1.19 kcal/mol
33 | EEERTFTNEEEARKMKKEAEKRGLRVTVTKDGTTWRVRIG [A15M] | 1.87 kcal/mol
34 | EEERTFTNEEEARKIKKEAEKRGLRVTVTKDGTTWRVRIG [A15I] | 1.43 kcal/mol
35 | EEERTFTNEEVARKAKKEAEKRGLRVTVTKDGTTWRVRIG [E11V] | 0.538 kcal/mol
36 | EEERTFTNEEIARKAKKEAEKRGLRVTVTKDGTTWRVRIG [E11I] | 0.287 kcal/mol
37 | EEERTFTNEEHARKAKKEAEKRGLRVTVTKDGTTWRVRIG [E11H] | 1.32 kcal/mol
38 | EEERTFTNEECARKAKKEAEKRGLRVTVTKDGTTWRVRIG [E11C] | 1.56 kcal/mol
39 | EEERTFTNEENARKAKKEAEKRGLRVTVTKDGTTWRVRIG [E11N] | 1.18 kcal/mol
40 | EEERTFTNEEWARKAKKEAEKRGLRVTVTKDGTTWRVRIG [E11W] | 1.07 kcal/mol
41 | EEERTFTNEERARKAKKEAEKRGLRVTVTKDGTTWRVRIG [E11R] | 0.608 kcal/mol
42 | EEERTFTNEEYARKAKKEAEKRGLRVTVTKDGTTWRVRIG [E11Y] | 0.886 kcal/mol

Row | Variant | folding stability dG
43 | EEERTFTNEEDARKAKKEAEKRGLRVTVTKDGTTWRVRIG [E11D] | 2.28 kcal/mol
44 | EEERTFTNEEGARKAKKEAEKRGLRVTVTKDGTTWRVRIG [E11G] | 1.34 kcal/mol
45 | EEERTFTNEETARKAKKEAEKRGLRVTVTKDGTTWRVRIG [E11T] | 0.995 kcal/mol
46 | EEERTFTNEEFARKAKKEAEKRGLRVTVTKDGTTWRVRIG [E11F] | 0.906 kcal/mol
47 | EEERTFTNEESARKAKKEAEKRGLRVTVTKDGTTWRVRIG [E11S] | 1.46 kcal/mol
48 | EEERTFTNEELARKAKKEAEKRGLRVTVTKDGTTWRVRIG [E11L] | 1.31 kcal/mol
49 | EEERTFTNEEMARKAKKEAEKRGLRVTVTKDGTTWRVRIG [E11M] | 1.55 kcal/mol
50 | EEERTFTNEEAARKAKKEAEKRGLRVTVTKDGTTWRVRIG [E11A] | 1.8 kcal/mol
51 | EEERTFTNEEKARKAKKEAEKRGLRVTVTKDGTTWRVRIG [E11K] | 0.826 kcal/mol
52 | EEERTFTNEEPARKAKKEAEKRGLRVTVTKDGTTWRVRIG [E11P] | -0.587 kcal/mol
53 | EEERTFTNEEQARKAKKEAEKRGLRVTVTKDGTTWRVRIG [E11Q] | 1.58 kcal/mol
54 | EEERTFTNEEETRKAKKEAEKRGLRVTVTKDGTTWRVRIG [A12T] | 0.316 kcal/mol
55 | EEERTFTNEEEMRKAKKEAEKRGLRVTVTKDGTTWRVRIG [A12M] | 2.08 kcal/mol
56 | EEERTFTNEEECRKAKKEAEKRGLRVTVTKDGTTWRVRIG [A12C] | 2 kcal/mol
57 | EEERTFTNEEESRKAKKEAEKRGLRVTVTKDGTTWRVRIG [A12S] | 0.218 kcal/mol
58 | EEERTFTNEEELRKAKKEAEKRGLRVTVTKDGTTWRVRIG [A12L] | 0.876 kcal/mol
59 | EEERTFTNEEEWRKAKKEAEKRGLRVTVTKDGTTWRVRIG [A12W] | 0.906 kcal/mol
60 | EEERTFTNEEEFRKAKKEAEKRGLRVTVTKDGTTWRVRIG [A12F] | 1.54 kcal/mol
61 | EEERTFTNEEEVRKAKKEAEKRGLRVTVTKDGTTWRVRIG [A12V] | 1.51 kcal/mol
62 | EEERTFTNEEEIRKAKKEAEKRGLRVTVTKDGTTWRVRIG [A12I] | -0.149 kcal/mol
63 | EEERTFTNEEEYRKAKKEAEKRGLRVTVTKDGTTWRVRIG [A12Y] | 1.34 kcal/mol
